Source: EP3628678A1 (Ecole Polytechnique Federale De Lausanne (EPFL) EPFL-TTO, dated 2020)

Biological target: RSVF on RSV A2 strain carrying a luciferase gene (RSV-Luc) (RSV A2 strain, UniProt P03420 26-574)
Experiment: cell-based or functional assay

Chain of RSVF on RSV A2 strain carrying a luciferase gene (RSV-Luc) (P03420 26-574): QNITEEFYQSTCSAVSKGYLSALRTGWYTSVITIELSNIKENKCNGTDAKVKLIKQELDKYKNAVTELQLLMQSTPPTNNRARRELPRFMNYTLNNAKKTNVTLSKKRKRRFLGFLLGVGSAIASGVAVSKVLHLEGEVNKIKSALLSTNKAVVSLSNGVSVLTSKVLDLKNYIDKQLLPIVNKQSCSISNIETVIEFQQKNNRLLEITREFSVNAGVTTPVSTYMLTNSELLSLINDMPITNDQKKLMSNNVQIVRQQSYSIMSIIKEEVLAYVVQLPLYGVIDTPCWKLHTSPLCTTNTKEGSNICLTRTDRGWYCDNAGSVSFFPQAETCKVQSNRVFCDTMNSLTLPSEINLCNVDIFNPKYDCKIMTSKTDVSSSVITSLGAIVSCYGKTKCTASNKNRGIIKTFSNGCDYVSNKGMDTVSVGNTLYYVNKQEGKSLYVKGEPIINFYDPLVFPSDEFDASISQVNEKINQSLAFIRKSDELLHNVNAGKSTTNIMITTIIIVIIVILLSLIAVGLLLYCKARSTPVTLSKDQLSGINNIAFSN

B1: Palivizumab (antibody, V domains shown)
VH: QVTLRESGPALVKPTQTLTLTCTFSGFSLSTSGMSVGWIRQPPGKALEWLADIWWDDKKDYNPSLKSRLTISKDTSKNQVVLKVTNMDPADTATYYCARSMITNWYFDVWGAGTTVTVSS
VL: DIQMTQSPSTLSASVGDRVTITCKCQLSVGYMHWYQQKPGKAPKLLIYDTSKLASGVPSRFSGSGSGTEFTLTISSLQPDDFATYYCFQGSGYPFTFGGGTKLEIK
With B1 as the binder, how does the “RSV neutralization IC50 (luciferase signal of RSV-Luc on HepG2 cells)” value read?
Its value is 0.32 µg/mL.
